Data as given in US20210214461A1.

Key:
[1] = target: pre-existing anti-scFv903 antibodies in human serum H21 (human); assay: competition ADA bridging ELISA
[2] = target: pre-existing anti-scFv903 antibodies in human serum H49 (human); assay: competition ADA bridging ELISA
[3] = target: pre-existing anti-scFv903 antibodies in human serum H66 (human); assay: competition ADA bridging ELISA
[4] = target: pre-existing anti-scFv903 antibodies in human serum H125 (human); assay: competition ADA bridging ELISA
[5] = target: pre-existing anti-scFv903 antibodies in human serum H105 (human); assay: competition ADA bridging ELISA
[6] = target: pre-existing anti-scFv903 antibodies in human serum H96 (human); assay: competition ADA bridging ELISA
[7] = target: pre-existing anti-scFv903 antibodies in human serum H8 (human); assay: competition ADA bridging ELISA
[8] = target: pre-existing anti-scFv903 antibodies in human serum H14 (human); assay: competition ADA bridging ELISA
[9] = target: pre-existing anti-scFv903 antibodies in human serum H79 (human); assay: competition ADA bridging ELISA
[10] = target: pre-existing anti-scFv903 antibodies in human serum H15 (human); assay: competition ADA bridging ELISA
[11] = target: pre-existing anti-scFv903 antibodies in human serum H53 (human); assay: competition ADA bridging ELISA
[12] = target: pre-existing anti-scFv903 antibodies in human serum H69 (human); assay: competition ADA bridging ELISA
[13] = target: pre-existing anti-scFv903 antibodies in human serum H29 (human); assay: competition ADA bridging ELISA
[14] = target: pre-existing anti-scFv903 antibodies in human serum H20 (human); assay: competition ADA bridging ELISA
[15] = target: pre-existing anti-scFv903 antibodies in human serum H86 (human); assay: competition ADA bridging ELISA
[16] = target: pre-existing anti-scFv903 antibodies in human serum H40 (human); assay: competition ADA bridging ELISA
[17] = target: pre-existing anti-scFv903 antibodies in human serum H63 (human); assay: competition ADA bridging ELISA
[18] = target: pre-existing anti-scFv903 antibodies in human serum H64 (human); assay: competition ADA bridging ELISA
[19] = target: pre-existing anti-scFv903 antibodies in human serum H19 (human); assay: competition ADA bridging ELISA
[20] = target: pre-existing anti-scFv903 antibodies in human serum H115 (human); assay: competition ADA bridging ELISA
[21] = target: pre-existing anti-scFv903 antibodies in human serum H50 (human); assay: competition ADA bridging ELISA
[22] = target: pre-existing anti-scFv903 antibodies in human serum H80 (human); assay: competition ADA bridging ELISA
[23] = target: pre-existing anti-scFv903 antibodies in human serum H76 (human); assay: competition ADA bridging ELISA
[24] = target: pre-existing anti-scFv903 antibodies in human serum H56 (human); assay: competition ADA bridging ELISA
[25] = target: pre-existing anti-scFv903 antibodies in human serum H54 (human); assay: competition ADA bridging ELISA
[26] = target: pre-existing anti-scFv903 antibodies in human serum H59 (human); assay: competition ADA bridging ELISA
[27] = target: pre-existing anti-scFv903 antibodies in human serum H81 (human); assay: competition ADA bridging ELISA
[28] = target: pre-existing anti-scFv903 antibodies in human serum H55 (human); assay: competition ADA bridging ELISA
[29] = target: pre-existing anti-scFv903 antibodies in human serum H116 (human); assay: competition ADA bridging ELISA
[30] = target: pre-existing anti-scFv903 antibodies in human serum H46 (human); assay: competition ADA bridging ELISA
[31] = target: pre-existing anti-scFv903 antibodies in human serum H135 (human); assay: competition ADA bridging ELISA
[32] = target: pre-existing anti-scFv903 antibodies in human serum H26 (human); assay: competition ADA bridging ELISA
[33] = target: pre-existing anti-scFv903 antibodies in human serum H60 (human); assay: competition ADA bridging ELISA
[34] = target: pre-existing anti-scFv903 antibodies in human serum H3 (human); assay: competition ADA bridging ELISA
[35] = target: pre-existing anti-scFv903 antibodies in human serum H49 (human); assay: competition ADA bridging ELISA, 100 mcg/ml competitor
[36] = target: pre-existing anti-scFv903 antibodies in human serum H66 (human); assay: as above
[37] = target: pre-existing anti-scFv903 antibodies in human serum H14 (human); assay: as above
[38] = target: pre-existing anti-scFv903 antibodies in human serum H53 (human); assay: as above
[39] = target: pre-existing anti-scFv903 antibodies in human serum H20 (human); assay: as above
[40] = target: pre-existing anti-scFv903 antibodies in human serum H40 (human); assay: as above
[41] = target: pre-existing anti-scFv903 antibodies in human serum H19 (human); assay: as above
[42] = target: pre-existing anti-scFv903 antibodies in human serum H115 (human); assay: as above
[43] = target: pre-existing anti-scFv903 antibodies in human serum H50 (human); assay: as above
[44] = target: pre-existing anti-scFv903 antibodies in human serum H56 (human); assay: as above
[45] = target: pre-existing anti-scFv903 antibodies in human serum H55 (human); assay: as above
[46] = target: pre-existing anti-scFv903 antibodies in human serum H135 (human); assay: as above

B1: scFv 903 (scFv)
scFv: EIVMTQSPSTLSASVGDRVIITCQASEIIHSWLAWYQQKPGKAPKLLIYLASTLASGVPSRFSGSGSGAEFTLTISSLQPDDFATYYCQNVYLASTNGANFGQGTKLTVLGGGGGSGGGGSGGGGSGGGGSEVQLVESGGGLVQPGGSLRLSCTASGFSLTDYYYMTWVRQAPGKGLEWVGFIDPDDDPYYATWAKGRFTISRDTSKNTVYLQMNSLRAEDTAVYYCAGGDHNSGWGLDIWGQGTLVTVSS
signal change in competition ELISA (% reduction in OD) [1]: -85% | signal change in competition ELISA (% reduction in OD) [2]: -83% | signal change in competition ELISA (% reduction in OD) [3]: -97% | signal change in competition ELISA (% reduction in OD) [4]: -98% | signal change in competition ELISA (% reduction in OD) [5]: -97% | signal change in competition ELISA (% reduction in OD) [6]: -80% | signal change in competition ELISA (% reduction in OD) [7]: -87% | signal change in competition ELISA (% reduction in OD) [8]: -97% | signal change in competition ELISA (% reduction in OD) [9]: -97% | signal change in competition ELISA (% reduction in OD) [10]: -91% | signal change in competition ELISA (% reduction in OD) [11]: -32% | signal change in competition ELISA (% reduction in OD) [12]: -92% | signal change in competition ELISA (% reduction in OD) [13]: -79% | signal change in competition ELISA (% reduction in OD) [14]: -92% | signal change in competition ELISA (% reduction in OD) [15]: -86% | signal change in competition ELISA (% reduction in OD) [16]: -95% | signal change in competition ELISA (% reduction in OD) [17]: -97% | signal change in competition ELISA (% reduction in OD) [18]: -97% | signal change in competition ELISA (% reduction in OD) [19]: -90% | signal change in competition ELISA (% reduction in OD) [20]: -95% | signal change in competition ELISA (% reduction in OD) [21]: -89% | signal change in competition ELISA (% reduction in OD) [22]: -87% | signal change in competition ELISA (% reduction in OD) [23]: -97% | signal change in competition ELISA (% reduction in OD) [24]: -24% | signal change in competition ELISA (% reduction in OD) [25]: -93% | signal change in competition ELISA (% reduction in OD) [26]: -97% | signal change in competition ELISA (% reduction in OD) [27]: -95% | signal change in competition ELISA (% reduction in OD) [28]: -89% | signal change in competition ELISA (% reduction in OD) [29]: -98% | signal change in competition ELISA (% reduction in OD) [30]: -80% | signal change in competition ELISA (% reduction in OD) [31]: -93% | signal change in competition ELISA (% reduction in OD) [32]: -92% | signal change in competition ELISA (% reduction in OD) [33]: -96% | signal change in competition ELISA (% reduction in OD) [34]: -80% | % change in OD in competition ELISA [35]: -82.7% | % change in OD [36]: -97.2% | % change in OD signal [37]: -96.6% | signal change in competition ELISA (%) [38]: -32.4% | signal change in competition ELISA [39]: -91.9% | % signal change in OD (negative = reduction) [40]: -95.4% | signal change in competition ELISA (% change in OD) [41]: -90.3% | % reduction in OD [42]: -94.7% | signal change in competition ELISA (% change in OD) [43]: -88.7% | % change in OD [44]: -24.4% | % signal change in OD (negative = reduction) [45]: -89.4% | % reduction in OD [46]: -92.5%
